Source: the DeepSol protein solubility set

Assay: soluble on expression in E. coli; label from the status in PepcDB or PDB records
For “MAPVQGSYDYDLIVIGGGSAGLACAKEAVLNGARVACLDFVKPTPTLGTKWGVGGTCVNVGCIPKKLMHQASLLGEAVHEAAAYGWNVDDKIKPDWHKLVQSVQNHIKSVNWVTRVDLRDKKVEYINGLGSFVDSHTLLAKLKSGERTITAQTFVIAVGGRPRYPDIPGAVEYGITSDDLFSLDREPGKTLVVGAGYIGLECAGFLKGLGYEPTVMVRSIVLRGFDQQMAELVAASMEERGIPFLRKTVPLSVEKQDDGKLLVKYKNVETGEESEDVYDTVLWAIGRKGLVDDLNLPNAGVTVQKDKIPVDSQEATNVANIYAVGDIIYGKPELTPVAVLAGRLLARRLYGGSTQRMDYKDVATTVFTPLEYACVGLSEEDAVKQFGADEIEVFHGYYKPTEFFIPQKSVRYCYLKAVAERHGDQRVYGLHYIGPVAGEVIQGFAAALKSGLTINTLINTVGIHPTTAEEFTRLAITKRSGLDPTPAS”, the “soluble on expression in E. coli” value was “soluble”.
With “MAPVTPDAVNARQQRPADPALRRLMHPHHRNYTASKASAHSVKSVSRCGKSRSELGRMERVGSVARSICSRHTRHGVDRSHFSLRDFFRGISANFELGKDFLREMNTPIHVSEAVFLPLSLCTLSPGRCLRLSPFGHSLTLGSHCEICINRSQVHVPQEFSSTQLSFFNNVHKIIPNKTFYVSLLSSSPSAVKAGLSQPSLLYAYLVTGHFCGTICPIFSTNGKGRLIMHLLLQGTSLHIPETCLKLLCENIGPTYELAVDLVGDAFCIKVSPRDTVYEKAVNVDEDAIYEAIKDLECGDELRLQIINYTQLILENKQ” the “soluble on expression in E. coli” value was “not soluble”.
With “MAQAKHKQRKRLKSSCKRHPLYVDFSDVGWNDWIVAPPGYHAFYCHGECPFPLADHLNSTNHAIVQTLVNSVNSKIPKACCVPTELSAISMLYLDENEKVVLKNYQDMVVEGCGCR” the “soluble on expression in E. coli” value was “soluble”.
With “MAQFTEDEKIMRRLEQRFNKGVVKYRLIEDGDKILIGLSGGKDSLALLELLARRSRILKPKFTVIAVHVGMTNIPYQSDLEYLKGYSEDLGVPFVHYETFFDPSTDTRKSPCFLCSWNRRKALFTVAKEQGCNKIALGHHMDDILETLLMNITFQGAFSTMPPKLVMRKFEMTIIRPMCLVHEADLIEMARIRGFRKQIKDCPYESLSNRSNMKEVLYSLEKMNPEARYSLWKCMTNIQEELLPGMNEHDL” the “soluble on expression in E. coli” value was “not soluble”.
With “MAQLMKRGFSTSAALAKAQLVKTPIQVHGVEGRYAAALYSAGHKQNKLDQISTDLNNVRSVYKDNKKFQEFVLDPTLKANKKKTAIEAISTKLGLTKETGNFLGLLAENGRLNKLESVVSSFESIMRAHRGELFVQVTSAEELSSSNQKALSDALSKIGKSGQKLTVTYAVKPSILGGLVVTIGDKYVDLSIASRVKKYKDALATAI” the “soluble on expression in E. coli” value was “not soluble”.
In the case of “MAQRGRKPKPTALKILEGNPGKRPLNEDEPKPEKKAPKCPGWLDAEAKKEWRRMSKQLEAMGILTEIDMAAFAGYCQAYARWKEAEEFITKHGTIVKTPSGYWQQVPQVSIAQTYLKIMNRFCEQFGLTPSARSRIVTDNINDEEDPMELILYKGGSKSV”, the “soluble on expression in E. coli” value is reported as “soluble”.
In the case of “MAQSSAQLLFDESGQPFIVMREQENQKRITGVEAVKSHILAARAVANTLRTSLGPRGLDKMLVSPDGDVTITNDGATIMEKMDVQHHVAKLMVELSKSQDHEIGDGTTGVVVLAGALLEEAEKLIDRGIHPIKIADGFDLACKKALETLDSISDKFPVENRERLVETAQTSLGSKIVNRSLRQFAEIAVDAVLSVADIESKDVNFEMIKMEGKVGGRLEDTILVKGIVIDKTMSHPQMPKELKNAKVAILTCPFEPPKPKTKHKLDITSTEDFKALRDYERETFETMIRQVKESGATLAICQWGFDDEANHLLQANDLPAVRWVGGPEIELLAIATNARIVPRFSELSKEKLGTAGLVREITFGAAKDRMLSIEQCPNNKAVTIFVRGGNKMIIDEAKRALHDALCVIRNLVRDSRIVYGGGSAELAAAIQVAKEADRIDGIEQYAFRAFADALESIPMALAENSGLAPIDALSDLKAKQIETGKSSLGIDAVFAGTNDMKEQKVIETLLSKREQISLATQVVRMILKIDDVRVPDDERMGY”, the “soluble on expression in E. coli” value is reported as “not soluble”.
With “MAQTKPIAEQMAALNNSDDTSFAADRSNSLLNATCPARIQNSVDQRKINRSFNDSLSSGYSGKWLRPKREALKITPLAQIDEAPATKRHSSAKDKHTEYKTRLCDAFRREGYCPYNDNCTYAHGQDELRVPRRRQEYYSRDPPRERRDSRSRRDDVDTTINRSSSSASKHHDENRRPSNNHGSSNRRQICHNFERGNCRYGPRCRFIHVEQMQHFNANATVYAPPSSDCPPPIAYYHHHPQHQQQFLPFPMPYFLAPPPQAQQGAPFPVQYIPQQHDLMNSQPMYAPMAPTYYYQPINSNGMPMMDVTIDPNATGGAFEVFPDGFFSQPPPTIIS” the “soluble on expression in E. coli” value was “not soluble”.
